# From patent US20120277281A1, “POLYNUCLEOTIDES FOR MEDICAL USE” (MAX-DELBRÜCK-CENTRUM FÜR MOLEKULARE MEDIZIN, priority 2009, published 2012)
# B1: rhCSF-1: recombinant human CSF-1 (216-MC, R&D Systems) (protein)
# chain: EEVSEYCSHMIGSGHLQSLQRLIDSQMETSCQITFEFVDQEQLKDPVCYLKKAFLLVQDIMEDTMRFRDNTPNAIAIVQLQELSLRLKSCFTKDYEEHDKACVRTFYETPLQLLEKVKNVFNETKNLLDKDWNIFSKNCNNSFAECSSQDVVTKPDCN
# What was measured:
# CSF1R = biological target: T1, CSF1R (Homo sapiens, UniProt P07333); test: CSF1R tyrosine phosphorylation in L540Cy cells (CSF1R IP, p-Tyr western blot); type: cell-based; conditions: L540Cy cells stimulated with rhCSF-1
# T1 construct: endogenous in cells; host or cells: L540Cy (Hodgkin/Reed-Sternberg cell line)
# T1 sequence (P07333 20-972): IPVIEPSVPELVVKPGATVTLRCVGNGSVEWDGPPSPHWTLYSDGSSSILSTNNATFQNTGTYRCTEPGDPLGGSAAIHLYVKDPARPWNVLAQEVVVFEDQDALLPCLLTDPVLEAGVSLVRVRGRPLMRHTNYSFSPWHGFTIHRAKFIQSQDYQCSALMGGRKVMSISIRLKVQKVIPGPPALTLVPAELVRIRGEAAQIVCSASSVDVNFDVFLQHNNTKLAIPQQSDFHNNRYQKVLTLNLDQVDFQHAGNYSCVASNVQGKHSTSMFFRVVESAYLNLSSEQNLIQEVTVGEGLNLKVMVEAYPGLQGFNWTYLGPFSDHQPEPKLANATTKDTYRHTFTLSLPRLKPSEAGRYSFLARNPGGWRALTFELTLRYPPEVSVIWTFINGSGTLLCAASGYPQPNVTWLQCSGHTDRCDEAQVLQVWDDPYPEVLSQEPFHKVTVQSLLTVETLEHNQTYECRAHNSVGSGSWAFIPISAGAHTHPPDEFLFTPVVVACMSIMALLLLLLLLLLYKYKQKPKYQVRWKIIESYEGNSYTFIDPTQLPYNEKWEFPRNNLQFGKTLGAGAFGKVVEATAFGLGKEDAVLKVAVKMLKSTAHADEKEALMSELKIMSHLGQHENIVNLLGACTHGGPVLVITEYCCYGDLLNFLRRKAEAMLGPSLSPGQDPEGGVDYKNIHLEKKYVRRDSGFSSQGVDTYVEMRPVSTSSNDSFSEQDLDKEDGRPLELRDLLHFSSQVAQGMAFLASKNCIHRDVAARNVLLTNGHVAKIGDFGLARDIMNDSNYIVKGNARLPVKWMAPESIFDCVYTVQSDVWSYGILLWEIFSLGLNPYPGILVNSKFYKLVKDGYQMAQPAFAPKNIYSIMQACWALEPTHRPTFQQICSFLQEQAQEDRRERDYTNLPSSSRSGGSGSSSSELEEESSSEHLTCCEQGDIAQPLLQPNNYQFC
# Procedure: FIG. 1. Lineage-inappropriate expression of functional CSF1R and CSF-1 in Hodgkin lymphoma cells. Analysis of CSF1R and CSF-1 protein expression and of CSF1R:Fc functionality. (A) Analysis of CSF1R and CSF1 mRNA expression by RT-PCR in Hodgkin and non-Hodgkin cell lines. Expression of GAPDH was analyzed as a control. (1a) Analysis of CSF1R and CSF1 mRNA expression by RT-PCR in Hodgkin's and non-Hodgkin's cell lines. GAPDH expression was analyzed as a control. One representative of four independent experiments is shown. (B, C) Analysis of CSF1R (B) and CSF-1 (C) protein expression in various cell lines by extracellular and intracellular flow cytometry, respectively. IC, isotype control. (D) Supernatants of various cell lines were analyzed by a CSF-1-specific ELISA. […] CSF1R tyrosine phosphorylation was detected by WB with an antibody recognizing phospho-tyrosine (p-Tyr; upper panel). […] CSF1R tyrosine phosphorylation was detected by western blotting with an antibody recognizing phosphotyrosine (p-Tyr; top). […]
# FIG. 3. […] After 48 hours, cells were pulsed with 1 μCi [^3H]-thymidine per well for a further 20 hours, and [^3H]-thymidine incorporation was determined cpm, counts per minute. […] (3A) [^3H]-thymidine incorporation in L540Cy cells left untreated (−) or treated with the indicated amounts of rhCSF-1 (black bars) or water control (open bars) under serum-reduced conditions (1% FCS) determined after 48 h. […]
# L540Cy cells = test: [3H]-thymidine incorporation in L540Cy cells; type: cell-based, human; conditions: 1% FCS, 48 h
# Procedure: FIG. 3. HRS cells depend on CSF1R activity. (A) L540Cy cells were left untreated (−) or treated with the indicated amounts rhCSF-1 (closed bars) or the respective control (open bars) under serum reduced conditions (1% FCS). After 48 hours, cells were pulsed with 1 μCi [^3H]-thymidine per well for a further 20 hours, and [^3H]-thymidine incorporation was determined cpm, counts per minute. Data are represented as mean±SD. (3A) [^3H]-thymidine incorporation in L540Cy cells left untreated (−) or treated with the indicated amounts of rhCSF-1 (black bars) or water control (open bars) under serum-reduced conditions (1% FCS) determined after 48 h. Data are represented as means±s.d. […] After 24 hours, cells were pulsed with [^3H]-thymidine incorporation and analyzed as described in (A). […] CSF1R tyrosine phosphorylation was analyzed as described in FIG. 1F. […]
# DNA synthesis was determined by [^3H]-thymidine incorporation assays using standard protocols. The percentage of viable and apoptotic cells was determined by annexin V-FITC/propidium iodide (PI) double-staining (Bender MedSystems) and subsequent FACS analysis.
# We determined DNA synthesis by [^3H]-thymidine incorporation assays using standard protocols. In case of L540Cy cells (FIG. 1d), after 48 hours, cells were pulsed with 1 μCi [^3H]-thymidine per well for a further 20 hours, and [^3H]-thymidine incorporation was determined. […]
molecule,measurement,setting,value
B1,CSF1R tyrosine phosphorylation following stimulation,CSF1R,rapid increase
same,proliferation ([3H]-thymidine incorporation),L540Cy cells,induced proliferation in a dose-dependent manner
